Patent US20240035031A1

Molecular target: PYL1-MS2 (MS2 binding protein fused to PYL1 via a glycine-serine linker) (UniProt Q8VZS8)
Experiment: cell-based or functional assay

GFP+ cells by flow cytometry (split GFP trans-splicing reporter) in the presence of 1.5 mM ABA (% of cells GFP+): > 40
Substance: dPspCas13b-ABI1 (catalytically inactive Prevotella sp. Cas13b fused to the abscisic acid-binding protein ABI1 via a glycine-serine linker) (from UniProt P49597 126-423)
